Reference: patent US20220380473A1, “ANTI-GAL3 ANTIBODIES AND USES THEREOF” (TrueBinding, Inc., priority 2019, published 2022)
Entries after “also recorded” stand apart in the source; their conditions may differ.

Legend:
MBT-2 cells = assay: MBT-2 bladder tumor model, combination with anti-PD1 or anti-PD-L1; format: in vivo, mouse; details: 20 mg/Kg i.p.
Method: To evaluate the potential for GAL3-TIM3 blocking antibodies to influence tumor biology, studies were conducted in mice bearing MBT-2 bladder tumor xenografts in combination with other antibodies targeting the immunomodulatory checkpoint molecules PD-1 and PD-L1. Briefly, 7-week old female C3H/HeJ mice (Jackson Laboratory) were anesthetized by inhalation anesthetic (3 to 5% Isoflurane in medical grade air) and 1×10^6 MBT-2 cells (Sekisui XenoTech, LLC) in 0.1 mL PBS were subcutaneously injected into the right flank by using a syringe with a 25-ga needle. 7 days after tumor implantation, mice were randomly assigned into six groups (n=9-10). Mice were administrated intraperitoneally with isotype control mIgG2b (BioXCell), anti-Gal3 (mIMT001), anti-PD1 (RMP1-14, BioXCell) plus mIgG2b, anti-PD1 (RMP1-14) plus mIMT001, anti-PDL1 (10F.9G2, BioXCell) plus mIgG2b, and anti-PDL1 (10F.9G2) plus mIMT001. Isotype control and anti-Gal3 antibodies were dosed at 20 mg/Kg on day 7, 9, 12, 14 and 16; anti-PD1 (RMP1-14 10 mg/Kg) or anti-PDL1 (10F.9G2, 5 mg/Kg) were dosed on day 8, 12, and 15. Tumor volumes and body weights were monitored twice per week. The animals were humanely sacrificed when tumor volumes or animal health reached IACUC-defined endpoints. Results were expressed as mean±SEM, with statistical analysis performed by two-way ANOVA.

hGal3 peptide = assay: Gal3 peptide library ELISA (Example 25); format: binding, human; details: peptide array ELISA
Method: To identify the epitopes to which Gal3 antibodies with and without Gal3-TIM3 blocking activity bound, a library of 20 amino acid peptides representing portions of Gal3, summarized in Table 24.1, was produced and the ability to bind Gal3 antibodies was evaluated by ELISA.
At least 2 μg/ml of hGal3 peptide in 50 μl of PBS or 0.1 μg/ml of full-length human Gal3 protein (GenScript) and human Galectin-3 protein (Acro Biosystems, GA3-H5129) were diluted in PBS (Corning, 21-030-CM) to concentrations of at least 2 μg/ml or 0.1 μg/ml, respectively, and added to the wells of a 96-well ELISA plate (Thermo Fisher, 44-2404-21). After incubating the plate at 4° C. overnight, the plate was washed three times with PBST (PBS with 0.05% Tween 20 [VWR, 0777]). The plate was then blocked for an hour with 2% BSA (EMD Millipore, 126609) in PBST at room temperature with gentle rocking. Thereafter, the 2% BSA in PBST was discarded and human Galectin-3 hybridoma supernatants or antibodies were diluted in 2% BSA in PBST to concentrations of at least 0.1 μg/ml and added to the wells. The plate was incubated for an hour at room temperature with gentle rocking and then washed three times with PBST. Afterwards, Goat Anti-Mouse IgG-HRP (Jackson ImmunoResearch, 115-036-1461) or Goat Anti-Rat IgG HRP (abcam, ab205720) diluted in 2% BSA in PBST (1:4000) were added to the wells. The plate was incubated for 30 minutes to 1 hour at room temperature with gentle rocking and then washed three times with PB ST. TMB substrate (Thermo Scientific, 34029) was then added to each well. The reaction was stopped with 1M HCl (JT Baker, 5620-02) and read using a plate reader (Molecular Devices) at absorbance of 450 nm.

[1] = system: α-smooth muscle actin (SMA) and fibronectin; assay: UUO mouse kidney fibrosis, western blot of fibrosis markers (Example 19); format: in vivo; details: 10 mg/kg i.p., 14 day treatment, vs IgG2b control
Method: Unilateral […] obstruction (UUO) mouse model was created with 8-week old male C57BL/6 mice. The animals were randomly assigned into three groups (n=5); sham, mouse IgG2b control, and IMT001. […] On day 0, surgery was performed to ligate the left ureter in each animal. Following the surgery, the animals were administrated intraperitoneally either 10 mg/kg of mIgG2b (BioXCell) or IMT001 on day 1, 5 and 10. The animals in the sham group were left untreated. On day 4, 8 and 15 the animals were humanely sacrificed and left kidney tissues were surgically removed and snap frozen for western blot analysis.
30 mg snap frozen kidney tissue from 14 day treatment UUO group was homogenized in 500 μl of RIPA buffer (Thermo Scientific). The homogenate was left on ice for 10 minutes and then centrifuged at 12000 rpm for 10 min at 4° C. in 1.5 mL Eppendorf tubes. The supernatant containing protein was collected and was quantified by A280 absorbance with a Nanodrop (ThermoFisher). Protein samples were boiled in 4× sample Buffer containing β-mercaptoethanol (Bio-Rad) for 10 min. […] The membranes were washed three times with PBST and protein bands were detected by enhanced chemiluminescence using standard ECL detection methods as recommended by the manufacturer (Bio-Rad) and developed. […]

[2] = system: Human peripheral blood mononuclear cells (PBMCs); assay: CMV antigen recall assay, IFN gamma; format: cell-based; details: 10 ug/ml final, CMV 4 days, vs isotype control
Method: To assess the ability of Gal3-targeted antibodies with Gal3-TIM-3 blocking activity to enhance T-cell mediated responses, a CMV antigen recall assay was used. Human peripheral blood mononuclear cells (PBMCs) (Astarte, donor ID 230) were quickly thawed in 37 C water bath, resuspended in 20 ml of RPMI media with 10% FBS, and centrifuged at 1500 RPM for 5 min. Media was discarded pellet resuspended in 20 ml media and counted by […], and diluted to a final concentration of 4 million/ml in Serum free Media (Lonza). 50 ul of media plus cells (200,000 cells/well) were added to 60 inner wells of a 96 well round bottom plate, and incubated at 37 C for 30 min. Antibodies were added to serum free media to a stock concentration of 4× the final concentration (40 ug/ml). 50 ul of antibodies at 4× concentration were added directly to the PBMCS and incubated at 37 C for 30 min. After PBMCs were incubated with antibodies for 30 min, 100 ul of CMV (Astarte Biologics, Cat. #1004) at 2× concentration (1 ug/ml) directly to the cells and incubated for 4 days at 37 C. On Day 4, 10 ul of cell supernatant were collected to measure human IFN gamma concentration by ELISA via a human IFN-gamma ELISA kit (Invitrogen).

B1: IMT001: anti-Gal3 monoclonal antibody (Immutics); printed as mIMT001 (IMT001), murine (antibody, V domains shown)
VH: QIQLVQSGPELKKPGETVKISCKASGYTFTNYGMNWVKQAPGKGLKWMGWINTNTGEPTYVEEFKGRFAFSLETSASTAYLQINNLKNEDTATYFCAPYDNFFAYWGQGTLVTVSA
VL: DIVITQDELSNPVTSGESVSISCRSSKSLLYKDGKTYLNWFLQRPGQSPQLLIYLMSTHASGVSDRFSGSGSGTDFTLEISRVKAEDVGVYYCQQLVDYPLTFGAGTKLELK
effect on tumor volume, single agent (MBT-2 cells): did not exhibit any significant decrement in tumor volume; also recorded: did not reduce tumor volumes | Gal3 peptide bound (hGal3 peptide): peptide 6 | expression of fibrotic markers a-SMA and fibronectin in kidney [1]: reduced expression of both fibrotic markers | interferon-gamma secretion [2]: significantly increased levels
